Patent publication US20230190653A1, “METHOD FOR REDUCING OFF-TARGET UPTAKE OR ACCUMULATION OF AGENTS” (The Regents of the University of Colorado, A Body Corporate, priority 2021, published 2023)

Columns and labels:
[1] = Particle size measurement (Malvern Zetasizer / dynamic light scattering); type: physicochemical; settings: approximately 150 kD
Procedure: Lipids were dissolved in chloroform and used to prepare liposomes comprised of sphingosine:cholesterol:DAPC at a mole ratio of 3:2:5 in water as previously described. Briefly, the lipid mixture was dried with nitrogen gas to achieve a thin film that was incubated under vacuum overnight before rehydration with distilled water and sonication to achieve clarity (1-2 min). Lactosylceramide or PEG-ceramide were included in the chloroform-lipid mixture and incorporated into liposomes at a 5% mole ratio as previously described. […] The diameters of these preparations were 237.9±7.5 (lactose) and 273.4±10.4 (PEG) nm as reported previously.
Sphingosine, cholesterol, 1,2-diarachidoyl-sn-glycero-3-phosphocholine (DAPC), and C16-PEG750-Ceramide were purchased from Avanti® Polar Lipids (Alabaster, Ala.) and used to prepare liposomes at a 3:2:4.5:0.5 mole ratio (respectively) as previously described. The liposomes preparations have an average diameter of 135 nm, a PDI of 0.137, and were prepared in 5% dextrose to adjust the tonicity of the injection solution. […] A Malvern Zetasizer Nano-ZS was used for all size measurements.
FITC-dextran was chosen for these studies since it is commonly used to quantify endothelial and epithelial cell barrier permeability.

[2] = Direct injection of IFN-γ into tumors, persistence of cytokine levels; type: in vivo; settings: preliminary, data not shown
Source text: In contrast to inflammatory cytokines (e.g., TNF-α, IFN-γ, IFN-α, IFN-β) that increase vascular permeability, IFN-λ works specifically on the endothelial/epithelial cells to strengthen barrier integrity and prevent viral invasion. […] Ultimately, the lack of a tightening response in the tumor epithelium allows nanoparticles unaltered access to the tumor upon repeat administration.

[3] = tested on: IFNLR1 (interferon lambda receptor 1) gene expression; test: IFNLR1 gene expression by RT-qPCR in primary human liver epithelial cells; type: cell-based; settings: 24 hours treatment
Procedure: (§1) Interferon Lambda Receptor 1 (IFNλR1) mRNA Expression Quantification by Reverse Transcription-Polymerase Chain Reaction (RT-qPCR): Human Lung Microvascular Endothelial Cells (540-05A) (HLMVECs) purchased from Sigma-Aldrich® (Burlington, Mass.) were cultured and left untreated or treated with 100 ng/mL recombinant human IL-29 (R&D Systems® 1598-IL-025) or 100 ng/mL IL-28A/B (R&D Systems® 8417-IL-025/5259-IL-025) for 24 hours. […] After 24 hours, using TaqMan™ Fast Advanced Cells-to-CT™ kit purchased from Invitrogen™ (Waltham, Mass.), cells were collected according to manufacturer recommendations and IFNλR1 expression was quantified. PCR assay ID Hs00417120_ml (ThermoFisher Scientific™, Agawam, M A) was used to quantify IFNλR1 gene expression and PCR assay ID Hs03928985_g1 (ThermoFisher Scientific™, Agawam, M A) was used to quantify reference gene RNA18S5 expression.
(§2) To test the hypothesis that microvascular endothelial cells and liver epithelial cells respond to IFN-λ, real-time quantitative polymerase chain reaction (RT-qPCR) analysis was used to determine Interferon Lambda Receptor 1 (IFN λR1) gene expression in primary Human Lung Microvascular Endothelial Cells and primary Human Liver Epithelial Cells (TABLES 4 and 5). […] However, liver epithelial cells do express IFN λR1 and show an increase in IFN λR1 gene expression in response to IFN-λ and lipoplex treatment.

[4] = tested on: IFNLR1 gene expression; test: IFNLR1 gene expression by RT-qPCR in primary human lung microvascular endothelial cells; type: cell-based; settings: 24 hours treatment, 100 ng/mL
Procedure: as §1, §2

[5] = tested on: CT26 tumor-bearing mice; test: Doxil accumulation in organs and tumor after IFN-λ pre-treatment; type: in vivo, Balb/c mice
Source text: Tumor Bearing Experiments: Prior to treatment, female immunocompetent Balb/c mice 6-10 weeks old were acquired from Jackson labs (Bar Harbor, Me.) and allowed to acclimate for one week. The mice were then inoculated in the right flank with approximately 1 million CT26 murine colon carcinoma cells (ATCC #CRL-2638). Tumors were allowed to grow for approximately 7 days or until tumor size reached at least 100 mm^3. […] Twenty-four hours after the dextran/Doxil® injections, animals were euthanized, and organs collected for dextran/drug accumulation analysis.
A standard curve of fluorescence for doxorubicin was determined through fluorescence measurements of a serially diluted stock solution of the Doxil® in 90% isopropyl alcohol (IPA) acidified with HCl to a final concentration of 0.075 M. Fluorescence measurements were conducted in a CellStar™ μClear™ 96-Well, Cell Culture-Treated, Flat-Bottom Microplate from Greiner Bio-One™ (Monroe, N.C.) at an excitation of 470 nm and emission of 595 nm using a Molecular Devices (San Jose, Calif.) SpectraMax® M5. […] The equation from the resulting standard curve of fluorescence from each specific organ was used to calculate the total amount of doxorubicin extracted from a corresponding Doxil® treated organ.
Organs collected from animals were immediately flash-frozen in liquid nitrogen and stored at −80° C. until analysis. […] Doxorubicin fluorescence of the extracted solution was then measured, and total doxorubicin accumulation was then calculated using the doxorubicin fluorescence standard curves described above. […]
To assess the effects of IFN-λ pre-treatment on Doxil® accumulation, mice were intravenously injected with either 100 μL of 1×PBS or 1 μg of IFN-λ in 100 μL 1×PBS. […] After an additional 24 hours following Doxil administration, tissues were harvested from experimental mice and the total Doxil accumulation in tissues was determined using the extraction method and standard curves described above. […]

FITC-dextran
hydrodynamic diameter [1]: approximately 100 nm

IFN-γ: interferon gamma injected directly into tumors
time cytokine levels are maintained in the tumor [2]: at least 4 h

B1: IL29: recombinant human IL-29 (R&D Systems 1598-IL-025) (protein, UniProt Q8IU54 20-200, looked up)
Interferon lambda-1: GPVPTSKPTTTGKGCHIGRFKSLSPQELASFKKARDALEESLKLKNWSCSSPVFPGNWDLRLLQVRERPVALEAELALTLKVLEAAAGPALEDVLDQPLHTLHHILSQLQACIQPQPTAGPRPRGRLHHWLHRLQEAPKKESAGCLEASVTFNLFRLLTRDLKYVADGNLCLRTSTHPEST
ΔΔCt ([3]; vs untreated): −1.092
2^-ΔΔCt (Relative fold-change compared to untreated) ([3]; 100 ng/mL cytokine or 1 μg/mL lipoplexes): 2.132
ΔCt mean ([3]; 100 ng/mL cytokine or 1 μg/mL lipoplexes, reference RNA18S5): 19.476
IFN λR1 expression in endothelial cells [4]: no expression detected
ΔCt mean [4]: No Amplification

B2: IFN-λ: recombinant mouse IFN-λ2 (R&D Systems, 4635-ML-025/CF) (protein, UniProt Q4VK74 20-193, looked up)
Interferon lambda-2: DPVPRATRLPVEAKDCHIAQFKSLSPKELQAFKKAKDAIEKRLLEKDLRCSSHLFPRAWDLKQLQVQERPKALQAEVALTLKVWENMTDSALATILGQPLHTLSHIHSQLQTCTQLQATAEPRSPSRRLSRWLHRLQEAQSKETPGCLEASVTSNLFRLLTRDLKCVANGDQCV
Doxil accumulation in liver, spleen vs PBS pretreatment ([5]; 1 μg IFN-λ iv 24 h before 10 mg/kg Doxil): reduction
Doxil accumulation in the skin, kidney, lungs, and heart vs PBS pretreatment ([5]; 1 μg IFN-λ iv 24 h before 10 mg/kg Doxil, tissues 24 h later): significantly reduces
Doxil accumulation in tumor and plasma vs PBS pretreatment ([5]; not statistically significant): increase
